Like-named read-outs stand apart in the source and are kept apart here. Bridge positions count the residues as written; N and C are the ends. Square brackets hold non-standard residues; d marks the D form. Primed or numbered codes have the meaning given here. Ends that are not written are not given here. * marks the point of attachment. αGalNAc = CC(=O)N[C@@H]1[C@@H](O)[C@@H](O)[C@@H](CO)O[C@@H]1*; 5FAM = O=C1OC2(c3ccc(O)cc3Oc3cc(O)ccc32)c2ccc(C(=O)*)cc21; CF5″ = 5-carboxyfluorescein label; Hyp = O=C(O)[C@@H]1C[C@@H](O)CN1; Cha = N[C@@H](CC1CCCCC1)C(=O)O; CF5 = 5-carboxyfluorescein; AEEA = NCCOCCOCC(=O)O

Assay [1] deals with T1, DDE.
T1 chain 1: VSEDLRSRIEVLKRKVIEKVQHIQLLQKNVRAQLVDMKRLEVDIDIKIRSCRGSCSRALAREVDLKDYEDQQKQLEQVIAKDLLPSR
T1 chain 2: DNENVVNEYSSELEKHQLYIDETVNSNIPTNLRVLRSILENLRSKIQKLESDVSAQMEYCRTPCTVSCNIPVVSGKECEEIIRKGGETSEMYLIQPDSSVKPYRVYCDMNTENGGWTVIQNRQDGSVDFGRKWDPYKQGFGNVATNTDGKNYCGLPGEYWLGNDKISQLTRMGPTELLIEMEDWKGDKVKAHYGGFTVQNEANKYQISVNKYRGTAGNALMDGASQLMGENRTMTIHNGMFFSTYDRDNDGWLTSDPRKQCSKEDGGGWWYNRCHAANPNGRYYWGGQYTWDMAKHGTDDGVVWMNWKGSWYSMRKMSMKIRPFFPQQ
T1 chain 3: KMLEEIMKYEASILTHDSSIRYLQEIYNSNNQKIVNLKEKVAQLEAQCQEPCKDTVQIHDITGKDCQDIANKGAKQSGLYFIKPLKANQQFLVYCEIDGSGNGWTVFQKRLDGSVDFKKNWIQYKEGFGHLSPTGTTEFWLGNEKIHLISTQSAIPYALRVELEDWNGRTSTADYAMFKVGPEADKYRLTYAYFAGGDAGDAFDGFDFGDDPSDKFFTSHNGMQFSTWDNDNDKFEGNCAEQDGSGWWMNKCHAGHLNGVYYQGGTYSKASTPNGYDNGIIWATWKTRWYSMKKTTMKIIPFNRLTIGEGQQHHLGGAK
T1 chain 4: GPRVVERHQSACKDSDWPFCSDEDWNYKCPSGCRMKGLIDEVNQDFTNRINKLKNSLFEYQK
T1 chain 5: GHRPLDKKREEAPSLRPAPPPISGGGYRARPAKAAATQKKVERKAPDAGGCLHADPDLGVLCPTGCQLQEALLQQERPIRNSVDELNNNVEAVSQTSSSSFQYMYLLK
T1 chain 6: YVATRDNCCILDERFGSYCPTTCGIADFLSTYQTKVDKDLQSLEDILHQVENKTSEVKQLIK
Nature of the assay: direct binding fluorescence polarization: CF5-labeled peptide titrated with DDE; n = 2.

In assay [2] the target is T1, DDE. Put plainly: competition fluorescence polarization: unlabeled peptide against Seq000-CF5 tracer on DDE; n = 2.
In assay [3] the target is DDE. Nature of the assay: direct binding fluorescence polarization: CF5-labeled peptide titrated with DDE; n = 2. This is another data set of the same source.

B1: Seq026-CF5 (peptide)
peptide: Ac-KGKGKGWQPCPWESWTFCWDPGGGK(CF5)-NH2
modifications: disulfide 10-18
B1 registered a Kd with DDE [1] of 760 nM.

B2: Seq034-CF5 (peptide)
peptide: Ac-GPPGWQPCPAESWTFCWDPGGGK(CF5)-NH2
modifications: disulfide 8-16
For the molecule B2, the Kd in the assay with DDE [1] was 310 nM.

B3: Seq042-CF5 (peptide)
peptide: Ac-WQPCPAESWT[Cha]CWDPGGGK(CF5)-NH2
modifications: disulfide 4-12
notes: also called Ac-WQPC*PAESWT-Cha-C*WDPGGGK(CF5)-NH2
The molecule B3 showed a Kd in the assay with DDE [1] of 170 nM.

B4: Seq035-CF5 (peptide)
peptide: Ac-GGRGWQPCPAESWTFCWDPGGGK(CF5)-NH2
modifications: disulfide 8-16
For the molecule B4, the affinity with DDE [1], expressed as Kd, was 520 nM.

B5: Seq029-P (peptide)
peptide: Ac-RRGGWQPCPWESWTFCWDPGGGK-NH2
modifications: disulfide 8-16
SMILES: CC(=O)N[C@@H](CCCNC(=N)N)C(=O)N[C@@H](CCCNC(=N)N)C(=O)NCC(=O)NCC(=O)N[C@@H](Cc1c[nH]c2ccccc12)C(=O)N[C@@H](CCC(N)=O)C(=O)N1CCC[C@H]1C(=O)N[C@H]1CSSC[C@@H](C(=O)N[C@@H](Cc2c[nH]c3ccccc23)C(=O)N[C@@H](CC(=O)O)C(=O)N2CCC[C@H]2C(=O)NCC(=O)NCC(=O)NCC(=O)N[C@@H](CCCCN)C(N)=O)NC(=O)[C@H](Cc2ccccc2)NC(=O)[C@H]([C@@H](C)O)NC(=O)[C@H](Cc2c[nH]c3ccccc23)NC(=O)[C@H](CO)NC(=O)[C@H](CCC(=O)O)NC(=O)[C@H](Cc2c[nH]c3ccccc23)NC(=O)[C@@H]2CCCN2C1=O
Regarding B5, the “Rel IC50” value with DDE [2] was 0.125 ratio to the reference peptide.

B6: Seq026-P (peptide)
peptide: Ac-KGKGKGWQPCPWESWTFCWDPGGGK-NH2
modifications: disulfide 10-18
Regarding B6, the “Rel IC50” value in the assay with DDE [2] is 0.595 ratio to the reference peptide.

B7: Seq024-P (peptide)
peptide: Ac-SGSGSGSGWQPCPWESWTFCWDPGGGK-NH2
modifications: disulfide 12-20
Take B7: the “Rel IC50” value with DDE [2] was 0.527 ratio to the reference peptide.

B8: Seq047-P (peptide)
peptide: Ac-RRGGWQPC[Hyp]WESWTFCWDPGGGK-NH2
modifications: disulfide 8-16
SMILES: CC(=O)N[C@@H](CCCNC(=N)N)C(=O)N[C@@H](CCCNC(=N)N)C(=O)NCC(=O)NCC(=O)N[C@@H](Cc1c[nH]c2ccccc12)C(=O)N[C@@H](CCC(N)=O)C(=O)N1CCC[C@H]1C(=O)N[C@H]1CSSC[C@@H](C(=O)N[C@@H](Cc2c[nH]c3ccccc23)C(=O)N[C@@H](CC(=O)O)C(=O)N2CCC[C@H]2C(=O)NCC(=O)NCC(=O)NCC(=O)N[C@@H](CCCCN)C(N)=O)NC(=O)[C@H](Cc2ccccc2)NC(=O)[C@H]([C@@H](C)O)NC(=O)[C@H](Cc2c[nH]c3ccccc23)NC(=O)[C@H](CO)NC(=O)[C@H](CCC(=O)O)NC(=O)[C@H](Cc2c[nH]c3ccccc23)NC(=O)[C@@H]2C[C@@H](O)CN2C1=O
As to B8, in the assay with DDE [2], the “Rel IC50” value was 0.75 ratio to the reference peptide.

B9: Seq045-CF5 (peptide)
peptide: Ac-SGSG[AEEA]WQPCPAESWTFCWDPGGGK(CF5)-NH2
modifications: disulfide 9-17
Regarding B9, in the assay with DDE [1], binding was put at a Kd of 570 nM.

B10: Seq014-CF5 (peptide)
peptide: Ac-GPPGWQPCPWESWTFCWDPGGGK(CF5)-NH2
modifications: disulfide 8-16
Regarding B10, binding in the assay with DDE [1] was put at a Kd of 250 nM.

B11: Seq014-P (peptide)
peptide: Ac-GPPGWQPCPWESWTFCWDPGGGK-NH2
modifications: disulfide 8-16
For B11, the “Rel IC50” value in the assay with DDE [2] is 0.235 ratio to the reference peptide.

B12: Seq017-CF5 (peptide)
peptide: Ac-SGSG[AEEA]WQPCPWESWTFCWDPGGGK(CF5″)-NH2
modifications: disulfide 9-17
As for B12, the Kd in the assay with DDE [1] came to 450 nM.

B13: Seq046-CF5 (peptide)
peptide: Ac-RRGGWQPCPAESWTFCWDPGGGK(CF5)-NH2
modifications: disulfide 8-16
In turn, B13 yielded a Kd with DDE [1] of 220 nM.

B14: Seq023-P (peptide)
peptide: H-RWQPCPWESWTFCWDPGGGK-NH2
modifications: disulfide 5-13
B14: the “Rel IC50” value with DDE [2] was 0.47 ratio to the reference peptide.

B15: Seq056-CF5 (peptide)
peptide: RWQPCPAESWTFCWDPGGGK(5FAM)-NH2
modifications: disulfide 5-13; N-terminus assumed
SMILES: C[C@@H]1NC(=O)[C@@H]2CCCN2C(=O)[C@@H](NC(=O)[C@@H]2CCCN2C(=O)[C@H](CCC(N)=O)NC(=O)[C@H](Cc2c[nH]c3ccccc23)NC(=O)[C@@H](N)CCCNC(=N)N)CSSC[C@@H](C(=O)N[C@@H](Cc2c[nH]c3ccccc23)C(=O)N[C@@H](CC(=O)O)C(=O)N2CCC[C@H]2C(=O)NCC(=O)NCC(=O)NCC(=O)N[C@@H](CCCCNC(=O)c2ccc3c(c2)C(=O)OC32c3ccc(O)cc3Oc3cc(O)ccc32)C(N)=O)NC(=O)[C@H](Cc2ccccc2)NC(=O)[C@H]([C@@H](C)O)NC(=O)[C@H](Cc2c[nH]c3ccccc23)NC(=O)[C@H](CO)NC(=O)[C@H](CCC(=O)O)NC1=O
B15 displayed a Kd with DDE [3] of 60 nM.

B16: Seq040-CF5 (peptide)
peptide: Ac-SGSGSGSGWQPCPAESWTFCWDPGGGK(CF5)-NH2
modifications: disulfide 12-20
The molecule B16 registered a Kd in the assay with DDE [1] of 530 nM. In other words, the sub-micromolar range.

B17: Seq000-CF5 (peptide)
peptide: Ac-WQPCPWESWTFCWDPGGGK(CF5)-NH2
modifications: disulfide 4-12
notes: also called standard 5CF-labeled peptide
B17: the affinity with DDE [1], expressed as Kd, was 390 nM.

B18: Seq024-CF5 (peptide)
peptide: Ac-SGSGSGSGWQPCPWESWTFCWDPGGGK(CF5)-NH2
modifications: disulfide 12-20
For B18, in the assay with DDE [1], the equilibrium dissociation constant (Kd) was found to be 470 nM. The Kd values of the last two molecules are within 1.5-fold of each other.

B19: Seq032-P (peptide)
peptide: Ac-WQPC[Hyp]WESWTFCWDPGGGK-NH2
modifications: disulfide 4-12
notes: also called Ac-WQPC*-Hypt4-WESWTFC*WDPGGGK-NH2
On to B19, for which the “Rel IC50” value in the assay with DDE [2] was 0.55 ratio to the reference peptide.

B20: Seq057-CF5 (peptide)
peptide: RWQPCPAESWT[Cha]CWDPGGGK(CF5)-NH2
modifications: disulfide 5-13
In turn, B20 yielded a Kd with DDE [3] of 30 nM.

B21: Seq025-CF5 (peptide)
peptide: Ac-KKGWQPCPWESWTFCWDPGGGK(CF5)-NH2
modifications: disulfide 7-15
The molecule B21 displayed a Kd in the assay with DDE [1] of 710 nM.

B22: Seq016-CF5 (peptide)
peptide: Ac-GWQPCPWESWTFCWDPGGGK(CF5)-NH2
modifications: disulfide 5-13
Regarding B22, in the assay with DDE [1], binding was characterised by a dissociation constant (Kd) of 230 nM.

B23: Seq022-P (peptide)
peptide: H-RGWQPCPWESWTFCWDPGGGK-NH2
modifications: disulfide 6-14
Turning to B23, the “Rel IC50” value with DDE [2] was 0.511 ratio to the reference peptide.

B24: Seq025-P (peptide)
peptide: Ac-KKGWQPCPWESWTFCWDPGGGK-NH2
modifications: disulfide 7-15
Take B24: the “Rel IC50” value with DDE [2] was 0.357 ratio to the reference peptide.

B25: Seq015-CF5 (peptide)
peptide: Ac-GGRGWQPCPWESWTFCWDPGGGK(CF5)-NH2
modifications: disulfide 8-16
As for B25, in the assay with DDE [1], binding was characterised by a dissociation constant (Kd) of 290 nM.

B26: Seq031-P (peptide)
peptide: Ac-S(αGalNAc)[AEEA]WQPCPWESWTFCWDPGGGK-NH2
modifications: disulfide 6-14
SMILES: CC(=O)N[C@H]1[C@@H](OC[C@H](NC(C)=O)C(=O)NCCOCCOCC(=O)N[C@@H](Cc2c[nH]c3ccccc23)C(=O)N[C@@H](CCC(N)=O)C(=O)N2CCC[C@H]2C(=O)N[C@H]2CSSC[C@@H](C(=O)N[C@@H](Cc3c[nH]c4ccccc34)C(=O)N[C@@H](CC(=O)O)C(=O)N3CCC[C@H]3C(=O)NCC(=O)NCC(=O)NCC(=O)N[C@@H](CCCCN)C(N)=O)NC(=O)[C@H](Cc3ccccc3)NC(=O)[C@H]([C@@H](C)O)NC(=O)[C@H](Cc3c[nH]c4ccccc34)NC(=O)[C@H](CO)NC(=O)[C@H](CCC(=O)O)NC(=O)[C@H](Cc3c[nH]c4ccccc34)NC(=O)[C@@H]3CCCN3C2=O)O[C@H](CO)[C@H](O)[C@@H]1O
Consider B26, for which the “Rel IC50” value with DDE [2] is 1.15 ratio to the reference peptide.

B27: Seq005-P (peptide)
peptide: Ac-WQPCPAESWTFCWDPGGGK-NH2
modifications: disulfide 4-12
SMILES: CC(=O)N[C@@H](Cc1c[nH]c2ccccc12)C(=O)N[C@@H](CCC(N)=O)C(=O)N1CCC[C@H]1C(=O)N[C@H]1CSSC[C@@H](C(=O)N[C@@H](Cc2c[nH]c3ccccc23)C(=O)N[C@@H](CC(=O)O)C(=O)N2CCC[C@H]2C(=O)NCC(=O)NCC(=O)NCC(=O)N[C@@H](CCCCN)C(N)=O)NC(=O)[C@H](Cc2ccccc2)NC(=O)[C@H]([C@@H](C)O)NC(=O)[C@H](Cc2c[nH]c3ccccc23)NC(=O)[C@H](CO)NC(=O)[C@H](CCC(=O)O)NC(=O)[C@H](C)NC(=O)[C@@H]2CCCN2C1=O
In the case of B27, in the assay with DDE [2], the “Rel IC50” value is 0.875 ratio to the reference peptide.

The record behind these values is patent US20120328512A1 (BRACCO IMAGING S P A, published 2012).
